Measurements from PMC7703624 (Proceedings of the National Academy of Sciences of the …, 2020).
Where a SMILES comes first, the peptide text is derived from it.

B1: wt2, Ac-…-NH2 (peptide)
peptide: Ac-SFEFPPPPTEDEL-NH2

Assays:
[1] = biological target: T1, ENAH EVH1 (Homo sapiens, UniProt Q8N8S7); assay: other fluorescence titration
Target sequence in this assay (Q8N8S7 whole entry): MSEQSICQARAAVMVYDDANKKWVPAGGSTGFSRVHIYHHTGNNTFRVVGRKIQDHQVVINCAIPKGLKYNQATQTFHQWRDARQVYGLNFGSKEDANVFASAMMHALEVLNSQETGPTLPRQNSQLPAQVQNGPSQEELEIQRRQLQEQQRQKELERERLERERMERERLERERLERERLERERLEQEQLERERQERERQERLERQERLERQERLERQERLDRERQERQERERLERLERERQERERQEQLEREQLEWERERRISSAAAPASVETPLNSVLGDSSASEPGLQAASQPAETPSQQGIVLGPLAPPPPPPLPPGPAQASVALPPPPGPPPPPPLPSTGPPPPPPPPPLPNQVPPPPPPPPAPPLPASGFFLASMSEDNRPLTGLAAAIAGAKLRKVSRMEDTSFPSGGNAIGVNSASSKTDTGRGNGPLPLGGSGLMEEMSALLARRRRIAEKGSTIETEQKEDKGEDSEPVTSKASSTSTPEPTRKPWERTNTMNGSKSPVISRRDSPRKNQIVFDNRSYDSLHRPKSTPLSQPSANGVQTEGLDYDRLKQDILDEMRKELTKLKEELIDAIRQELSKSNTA

[2] = biological target: T1, ENAH EVH1; assay: Fluorescence titration; assay type: binding
[3] = biological target: Fyn SH3 (Homo sapiens, UniProt P06241); assay: Pulldown of GST-Fyn SH3 from Jurkat cell lysate, displacement of ADAP; assay type: binding; settings: Jurkat cell lysate 1 mg/ml, 50 µM active concentration
Fyn SH3, sequence (P06241 82-143 limits assumed): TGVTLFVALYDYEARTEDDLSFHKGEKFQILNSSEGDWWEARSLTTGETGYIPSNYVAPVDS

Molecule | Kd [1] [nM] | other results
2ΔC, Ac-SFE[2-Cl-Phe][ProM-2][ProM-1]-OEt (peptide) | 2900 | 
2ΔN, Ac-[2-Cl-Phe][ProM-2][ProM-1]TEDEL-NH2 (peptide) | 330 | 
CCOC(=O)[C@@H]1CCCN1C(=O)[C@@H]1CCCN1C(=O)[C@@H]1CCCN1C(=O)[C@@H]1CCCN1C(=O)[C@H](Cc1ccccc1)NC(C)=O [wt1, Ac–FPPPP–OEt] (Ac-FPPPP-OEt) |  | Kd [2]: 153000 nM
Ac-RPLPPLP-NH2 [Ac–RPLPPLP −NH2] |  | displacement of ADAP from bead-bound GST-Fyn SH3 [3]: displaced ADAP
chimeric peptide 2, Ac-SFE[2-Cl-Phe][ProM-2][ProM-1]TEDEL-NH2 | 150 | 
B1 | 13000 | 
